Measured values taken from patent US20260028403A1 (Zymeworks, published 2026).

B1: v37636 (trispecific antibody, human IgG1, lambda, L234A L235A)
heavy 1: QVQLVESGGGLVQPGGSLRLSCSVSGIDLSSNPMIWVRQAPGKGLQYIGIIDTDGSTYYADWAKGRFTISKDSTTVYLQINSPRAEDTAVYYCARRLHGSSNGYYDDLWGQGTLVTVSSGGGGSGGGGSGGGGSGGGGSDGQMTQSPSSVSASVGDRVTITCQASQSIYSYLSWYQQKPGQRPKLLIYKASTLASGVPSRFSGSGSGTDFTLTISSVQPEDFATYYCQQGYTVTNVDKNTFGGGTKVEIKGGGGSGEVQLVESGGGLVQPGGSLRLSCAASGVTFNYYGMSWIRQAPGKGLEWVASITSSGGRIYYPDSVKGRFTISRENTQKTLYLQMNSLRAEDTAVYYCTLDGRDGWVAYWGQGTLVTVSSASTKGPSVFPLAPSSKSTSGGTAALGCLVKDYFPEPVTVSWNSGALTSGVHTFPAVLQSSGLYSLSSVVTVPSSSLGTQTYICNVNHKPSNTKVDKKVEPKSCDKTHTCPPCPAPEAAGGPSVFLFPPKPKDTLMISRTPEVTCVVVSVSHEDPEVKFNWYVDGVEVHNAKTKPREEQYNSTYRVVSVLTVLHQDWLNGKEYKCKVSNKALPAPIEKTISKAKGQPREPQVYVYPPSRDELTKNQVSLTCLVKGFYPSDIAVEWESNGQPENNYKTTPPVLDSDGSFALVSKLTVDKSRWQQGNVFSCSVMHEALHNHYTQKSLSLSPGGGGGSGDIQMTQSPSSLSASVGDRVTITCRASESVEYYVTSLMQWYQQKPGKAPKLLIYAASNVDSGVPSRFSGSGSGTDFTLTISSLQPEDIATYYCQQSRKVPFTFGGGTKVEIKGGGGSGGGGSGGGGSGGGGSQVQLQESGPGLVKPSETLSLTCAVSGFSLTSYGVHWIRQPPGKGLEWLGVIWPGGGTNFNSALMSRLTISEDTSKNQVSLKLSSVTAADTAVYYCARDRAYGNYLYAMDYWGQGTLVTVSS
heavy 2: EPKSSDKTHTCPPCPAPEAAGGPSVFLFPPKPKDTLMISRTPEVTCVVVSVSHEDPEVKFNWYVDGVEVHNAKTKPREEQYNSTYRVVSVLTVLHQDWLNGKEYKCKVSNKALPAPIEKTISKAKGQPREPQVYVLPPSRDELTKNQVSLLCLVKGFYPSDIAVEWESNGQPENNYLTWPPVLDSDGSFFLYSKLTVDKSRWQQGNVFSCSVMHEALHNHYTQKSLSLSPG
light: NFMLTQPHSVSESPGKTVTISCKRNTGNIGSNYVNWYQQHEGSSPTTIIYRNDKRPDGVSDRFSGSIDRSSKSASLTISNLKTEDEADYFCQSYSSGFIFGGGTKLTVLGQPKAAPSVTLFPPSSEELQANKATLVCLISDFYPGAVTVAWKADSSPVKAGVETTTPSKQSNNKYAASSYLSLTPEQWKSHRSYSCQVTHEGSTVEKTVAPTECS
notes: second heavy chain is Fc only; Het Fc, FcKO; also called Cldn18.2xCD3xCD28 trispecific
B2: v37637 (trispecific antibody, human IgG1, lambda, L234A L235A)
heavy 1: not shown
heavy 2: QVQLVESGGGLVQPGGSLRLSCSVSGIDLSSNPMIWVRQAPGKGLQYIGIIDTDGSTYYADWAKGRFTISKDSTTVYLQINSPRAEDTAVYYCARRLHGSSNGYYDDLWGQGTLVTVSSGGGGSGGGGSGGGGSGGGGSDGQMTQSPSSVSASVGDRVTITCQASQSIYSYLSWYQQKPGQRPKLLIYKASTLASGVPSRFSGSGSGTDFTLTISSVQPEDFATYYCQQGYTVTNVDKNTFGGGTKVEIKGGGGSGEVQLVESGGGLVQPGGSLRLSCAASGVTFNYYGMSWIRQAPGKGLEWVASITSSGGRIYYPDSVKGRFTISRENTQKTLYLQMNSLRAEDTAVYYCTLDGRDGWVAYWGQGTLVTVSSASTKGPSVFPLAPSSKSTSGGTAALGCLVKDYFPEPVTVSWNSGALTSGVHTFPAVLQSSGLYSLSSVVTVPSSSLGTQTYICNVNHKPSNTKVDKKVEPKSCDKTHTCPPCPAPEAAGGPSVFLFPPKPKDTLMISRTPEVTCVVVSVSHEDPEVKFNWYVDGVEVHNAKTKPREEQYNSTYRVVSVLTVLHQDWLNGKEYKCKVSNKALPAPIEKTISKAKGQPREPQVYVLPPSRDELTKNQVSLLCLVKGFYPSDIAVEWESNGQPENNYLTWPPVLDSDGSFFLYSKLTVDKSRWQQGNVFSCSVMHEALHNHYTQKSLSLSPG
light: B1 light
notes: Het Fc, FcKO; also called Cldn18.2xCD3xCD28 trispecific
B3: v37639 (trispecific antibody, human IgG1, kappa, L234A L235A)
heavy 1: not shown
heavy 2: QVQLVESGGGLVQPGGSLRLSCSVSGIDLSSNPMIWVRQAPGKGLQYIGIIDTDGSTYYADWAKGRFTISKDSTTVYLQINSPRAEDTAVYYCARRLHGSSNGYYDDLWGQGTLVTVSSGGGGSGGGGSGGGGSGGGGSDGQMTQSPSSVSASVGDRVTITCQASQSIYSYLSWYQQKPGQRPKLLIYKASTLASGVPSRFSGSGSGTDFTLTISSVQPEDFATYYCQQGYTVTNVDKNTFGGGTKVEIKAAEPKSSDKTHTCPPCPAPEAAGGPSVFLFPPKPKDTLMISRTPEVTCVVVSVSHEDPEVKFNWYVDGVEVHNAKTKPREEQYNSTYRVVSVLTVLHQDWLNGKEYKCKVSNKALPAPIEKTISKAKGQPREPQVYVLPPSRDELTKNQVSLLCLVKGFYPSDIAVEWESNGQPENNYLTWPPVLDSDGSFFLYSKLTVDKSRWQQGNVFSCSVMHEALHNHYTQKSLSLSPG
light: DIQMTQSPSSLSASVGDRVTITCRASESVEYYVTSLMQWYQQKPGKAPKLLIYAASNVDSGVPSRFSGSGSGTDFTLTISSLQPEDIATYYCQQSRKVPFTFGGGTKVEIKRTVAAPSVFIFPPSDEQLKSGTASVVCLLNNFYPREAKVQWKVDNALQSGNSQESVTEQDSKDSTYSLSSTLTLSKADYEKHKVYACEVTHQGLSSPVTKSFNRGECGGGGSGNFMLTQPHSVSESPGKTVTISCKRNTGNIGSNYVNWYQQHEGSSPTTIIYRNDKRPDGVSDRFSGSIDRSSKSASLTISNLKTEDEADYFCQSYSSGFIFGGGTKLTVLGGGGSGGGGSGGGGSGGGGSEVQLVESGGGLVQPGGSLRLSCAASGVTFNYYGMSWIRQAPGKGLEWVASITSSGGRIYYPDSVKGRFTISRENTQKTLYLQMNSLRAEDTAVYYCTLDGRDGWVAYWGQGTLVTVSS
notes: Het Fc, FcKO; also called Cldn18.2xCD28xCD3 trispecific

Legend:
[1] = target: T1, Recombinant human/cynomolgus/rhesus macaque CD28 mouse IgG2a Fc fusion protein (Acro Biosystems) (human/cynomolgus/rhesus macaque, UniProt P10747 19-152); test: SPR Biacore T200, CD28-mIgG2a Fc on CM5, construct injected, 1:1 model;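 further: fc fusion captured by amine coupling, run at 25 °C in HEPES buffer pH 7.4, association 140-500 s then dissociation 600-1200 s, values averaged over three independent runs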
T1 construct: bought; also called huCD28

[2] = target: T2, Recombinant human CD3 epsilon/delta heterodimer, his tag protein (Acro Biosystems) (human, UniProt P07766 23-126; P04234 22-105); test: SPR Biacore T200, CD3 e/d-his on CM5, construct injected, 1:1 model;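 further: measured at 25 °C in HEPES-buffered saline with EDTA and Tween 20 at pH 7.4, values are means of three independent runs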
T2 construct: bought

Binder | Kd [1] [nM] | koff [1] [s⁻¹] | kon [1] [M⁻¹ s⁻¹] | Kd [2] [nM] | koff [2] [s⁻¹] | kon [2] [M⁻¹ s⁻¹]
B1 | 434 | 0.0132 | 30400 | 160 | 0.021 | 134000
B2 | 61.4 | 0.00692 | 113000 | 106 | 0.0129 | 121000
B3 | 23.9 | 0.00201 | 84100 | 492 | 0.0144 | 29200
